This is an account of results in article PMC10359603.

The target in data set [1] is FseA (wild type, bacterial two-hybrid). Put plainly: bacterial two-hybrid.
Data set [2] deals with QseM (wild type, bacterial two-hybrid). Put plainly: bacterial two-hybrid.
For data set [3], the system named is 6H-MBP-FseA (Mesorhizobium japonicum R7A (ICEMlSymR7A)?). Kind of data set: EMSA. The settings on record: dimer concentration 4-130 nM; Hill slope fit, n=3; FseA EMSA: 10 mM Na phosphate pH 6.35, 220 mM NaCl, 6% glycerol, 1 mM DTT, 0.01 ug/ul poly(dI.dC), 0.1 ug/ul herring sperm DNA, 0.1-0.19 ug/ul BSA, 5 nM probe ….
The target of data set [4] is FseA_(1–55) (Mesorhizobium japonicum R7A). Put plainly: two-hybrid; Bacteriomatch II bacterial two-hybrid in E. coli; growth on selective medium with 5 mM 3-amino-1,2,4-triazole; strength as CFU/ml on selective against non-selective medium.
The target of data set [5] is 6H-MBP-FseA (Mesorhizobium japonicum R7A). Put plainly: SEC; HiLoad 16/600 Superdex 200; 50 mM Na2HPO4/NaH2PO4 pH 6.35, 10% glycerol, 500 mM NaCl; apparent mass from the elution volume.

A value given as a limit tells only on which side of the number the result lay.

Turning to “QseM (wild type, bacterial two-hybrid) W71A”, the percent of parent (% of wild-type QseM) in data set [1] is below 10.

For the substance “FseA (wild type, bacterial two-hybrid) W32A”, the percent of parent (% of wild-type FseA) in data set [2] is above 90.

For orientation: Kd means the free concentration of one partner at which half of the binding sites on the other are occupied at equilibrium, for simple one-to-one binding. A lower Kd goes with higher affinity. In data set [3], PrdfS FseA-box probe gave a Kd of 30 nM.

“QseM (wild type, bacterial two-hybrid) R28A”: the percent of parent (% of wild-type QseM) in data set [1] was above 90.

In data set [4], “QseM (wild type, bacterial two-hybrid) (natural protein)” came in with an interaction strength relative to wild-type FseA of 40%.

Turning to “FseA (wild type, bacterial two-hybrid) R219A”, the percent of parent (% of wild-type FseA) in data set [2] is above 90.

For “FseA (wild type, bacterial two-hybrid) D210A”, the percent of parent (% of wild-type FseA) in data set [2] was above 90.

What is called stoichiometry N is a count of units in the complex or per binding partner. For the substance 6H-MBP-FseA (natural protein), the stoichiometry N in data set [5] is 2.

With “FseA (wild type, bacterial two-hybrid) R36A”, the percent of parent (% of wild-type FseA) in data set [2] was above 90.

Turning to “FseA (wild type, bacterial two-hybrid) R37A”, the percent of parent (% of wild-type FseA) in data set [2] was below 10.

With “FseA (wild type, bacterial two-hybrid) G214”, in data set [2], the percent of parent (% of wild-type FseA) is above 90.

As to “QseM (wild type, bacterial two-hybrid) D31A”, the percent of parent (% of wild-type QseM) in data set [1] was below 10.

“QseM (wild type, bacterial two-hybrid) R68A”: the percent of parent (% of wild-type QseM) in data set [1] is below 10.

As to “QseM (wild type, bacterial two-hybrid) H22A”, in data set [1], the percent of parent (% of wild-type QseM) was above 90.

For “QseM (wild type, bacterial two-hybrid) E56A”, in data set [1], the percent of parent (% of wild-type QseM) was above 90.

With “QseM (wild type, bacterial two-hybrid) R57A”, the percent of parent (% of wild-type QseM) in data set [1] is above 90.

On to “QseM (wild type, bacterial two-hybrid) L29A”, for which the percent of parent (% of wild-type QseM) in data set [1] is below 10.
